Measurements taken from FireProtDB (doi:10.1021/bi034520t).

Conditions: Saccharolobus solfataricus (strain ATCC 35092 / DSM 1617 / JCM 11322 / P2), Thermal, CD, phosphate 10 mM, reversible: yes, whole UniProt chain shown

B1: DNA-binding protein 7d wild type, P39476 (protein)
chain: MATVKFKYKGEEKEVDISKIKKVWRVGKMISFTYDEGGGKTGRGAVSEKDAPKELLQMLEKQKK
In the case of B1, the Tm (pH 3) is reported as 80 °C, the “unfolding enthalpy (van 't Hoff)” value (pH 3) is reported as 50.2 kcal/mol and the Tm (pH 4) is reported as 95 °C. The “unfolding enthalpy (van 't Hoff)” value (pH 4) was 57.4 kcal/mol, the Tm (pH 5) was 98.5 °C and the “unfolding enthalpy (van 't Hoff)” value (pH 5) was 62.1 kcal/mol. The Tm (pH 6) was 99 °C, the “unfolding enthalpy (van 't Hoff)” value (pH 6) was 64.5 kcal/mol and the Tm (pH 7) was 98 °C. The “unfolding enthalpy (van 't Hoff)” value (pH 7) was 64.5 kcal/mol, the Tm (pH 8) was 97.5 °C and the “unfolding enthalpy (van 't Hoff)” value (pH 8) was 62.1 kcal/mol. The Tm (pH 9) was 97 °C and the “unfolding enthalpy (van 't Hoff)” value (pH 9) was 59.8 kcal/mol.
